Where no end group is shown, it is not given here. The star is where a group is joined. FITC = O=C1OC2(c3ccc(O)cc3Oc3cc(O)ccc32)c2ccc(NC(=S)*)cc21
Molecular target: mouse IMPα2ΔIBB (importin α2 lacking the IMPβ1 binding domain) (mouse, UniProt P52293 70-529)
Assay: crystal structure; IMPα2ΔIBB crystals (hanging drop, 650 mM sodium citrate, 100 mM HEPES pH 6.5, 10 mM DTT, 23°C) soaked with the peptide; 2.20 Å
Conditions: both partners purified

binding result: binds
B1: FITC-ΔNp63α NLSbip peptide (residues 278-302) (peptide)
peptide: {FITC}-DGTKRPFRQNTHGIQMTSIKKRRSP
notes: ΔNp63α (p63), human, residues 278-302, bipartite NLS; numbers count on: the ΔNp63α isoform (Q9H3D4-2); also called p63 NLS; source: synthetic peptide (GenScript)

— article doi:10.1101/2025.06.12.659319, “A bipartite, mutation-tolerant NLS regulates interaction of ΔNp63α with importin alpha, nuclear transport and transcriptional activity” (bioRxiv, 2025)
